From patent publication US6518016

Target: factor Xa-activated factor V(Q506) (UniProt P12259)
Sequence of UniProt P12259 (P12259 29-737 R534Q, chain 1 of 2): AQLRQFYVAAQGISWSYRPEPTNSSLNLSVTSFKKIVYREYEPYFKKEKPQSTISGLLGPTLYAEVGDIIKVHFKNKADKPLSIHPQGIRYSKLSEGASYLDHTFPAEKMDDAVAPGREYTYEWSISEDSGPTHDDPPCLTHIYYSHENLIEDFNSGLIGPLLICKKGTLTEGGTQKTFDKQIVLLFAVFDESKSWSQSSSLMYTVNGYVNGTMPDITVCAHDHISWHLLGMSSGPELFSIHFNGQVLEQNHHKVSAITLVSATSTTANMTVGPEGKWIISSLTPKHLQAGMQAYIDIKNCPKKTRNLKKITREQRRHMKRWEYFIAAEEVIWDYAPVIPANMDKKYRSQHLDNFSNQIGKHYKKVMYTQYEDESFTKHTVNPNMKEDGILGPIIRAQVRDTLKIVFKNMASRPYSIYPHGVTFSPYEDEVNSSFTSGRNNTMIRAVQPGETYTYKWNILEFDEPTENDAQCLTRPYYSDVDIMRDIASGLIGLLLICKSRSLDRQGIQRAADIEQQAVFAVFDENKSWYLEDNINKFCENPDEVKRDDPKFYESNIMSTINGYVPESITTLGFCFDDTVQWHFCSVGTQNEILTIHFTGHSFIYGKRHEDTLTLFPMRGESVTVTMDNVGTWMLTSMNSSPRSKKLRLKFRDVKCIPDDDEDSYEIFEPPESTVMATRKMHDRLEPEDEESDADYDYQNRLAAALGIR
Sequence of UniProt P12259 (P12259 1047-2224, chain 2 of 2): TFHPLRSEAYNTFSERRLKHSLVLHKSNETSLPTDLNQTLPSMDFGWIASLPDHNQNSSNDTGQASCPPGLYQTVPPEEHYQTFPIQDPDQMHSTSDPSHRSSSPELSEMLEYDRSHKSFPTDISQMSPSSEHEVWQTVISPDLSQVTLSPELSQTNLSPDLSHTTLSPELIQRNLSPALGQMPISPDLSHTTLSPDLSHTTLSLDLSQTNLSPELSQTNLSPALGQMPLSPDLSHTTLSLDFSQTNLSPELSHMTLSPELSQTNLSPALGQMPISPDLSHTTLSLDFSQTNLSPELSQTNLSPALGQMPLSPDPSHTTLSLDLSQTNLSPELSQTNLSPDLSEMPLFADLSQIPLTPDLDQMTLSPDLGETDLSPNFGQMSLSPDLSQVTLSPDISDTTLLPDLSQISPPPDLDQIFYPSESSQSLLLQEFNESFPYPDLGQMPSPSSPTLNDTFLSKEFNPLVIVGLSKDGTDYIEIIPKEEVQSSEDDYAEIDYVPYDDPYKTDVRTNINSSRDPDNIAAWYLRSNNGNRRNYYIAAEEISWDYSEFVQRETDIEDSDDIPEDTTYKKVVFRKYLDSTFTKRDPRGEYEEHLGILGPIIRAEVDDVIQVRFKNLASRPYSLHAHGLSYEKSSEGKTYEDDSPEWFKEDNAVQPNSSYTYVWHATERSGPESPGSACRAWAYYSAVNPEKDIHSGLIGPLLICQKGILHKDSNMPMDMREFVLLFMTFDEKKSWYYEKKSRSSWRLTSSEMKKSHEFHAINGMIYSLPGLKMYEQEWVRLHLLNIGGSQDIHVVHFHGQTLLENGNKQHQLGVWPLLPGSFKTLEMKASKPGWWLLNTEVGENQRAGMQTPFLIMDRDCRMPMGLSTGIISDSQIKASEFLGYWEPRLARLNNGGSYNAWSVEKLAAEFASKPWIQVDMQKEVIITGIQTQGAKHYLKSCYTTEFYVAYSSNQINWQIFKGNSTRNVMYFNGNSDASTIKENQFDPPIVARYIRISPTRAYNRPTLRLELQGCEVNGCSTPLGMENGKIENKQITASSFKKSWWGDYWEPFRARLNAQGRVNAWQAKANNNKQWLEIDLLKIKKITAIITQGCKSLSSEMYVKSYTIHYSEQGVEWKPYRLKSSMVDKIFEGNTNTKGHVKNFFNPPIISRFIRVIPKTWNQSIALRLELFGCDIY

## activated protein C (APC)
  inactivation of factor Va activity by APC (factor Va activity over time after adding 1.9 nM APC): the replacement of Arg-506 by Gln only prevents the inactivation of the Xa-activated form of factor V by APC
